This note sets out measurements from paper PMC2225174 (Acta Crystallographica Section F, 2006).

The target of the experiment is T1, SsoPCNA1 (Sulfolobus solfataricus, UniProt P57766 1-249).
T1 sequence (looked up): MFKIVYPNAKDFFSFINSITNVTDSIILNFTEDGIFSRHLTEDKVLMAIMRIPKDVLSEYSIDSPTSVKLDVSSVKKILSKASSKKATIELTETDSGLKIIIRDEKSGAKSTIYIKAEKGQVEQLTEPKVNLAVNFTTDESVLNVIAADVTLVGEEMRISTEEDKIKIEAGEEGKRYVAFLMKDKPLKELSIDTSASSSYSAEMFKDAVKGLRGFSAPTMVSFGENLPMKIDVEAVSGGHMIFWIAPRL
The experiment is described as follows: crystal structure.

B1: SsoPCNA2 (natural protein, Sulfolobus solfataricus, UniProt Q97Z84 1-245, looked up)
chain: MKAKVIDAVSFSYILRTVGDFLSEANFIVTKEGIRVSGIDPSRVVFLDIFLPSSYFEGFEVSQEKEIIGFKLEDVNDILKRVLKDDTLILSSNESKLTLTFDGEFTRSFELPLIQVESTQPPSVNLEFPFKAQLLTITFADIIDELSDLGEVLNIHSKENKLYFEVIGDLSTAKVELSTDNGTLLEASGADVSSSYGMEYVANTTKMRRASDSMELYFGSQIPLKLRFKLPQEGYGDFYIAPRAD
With B1, the binding result is reported as “binds”.
